Results: paper PMC11532998
Values joined by “and” are separate entries in the source; they are usually repeats but may differ in a detail not shown here. Equal entries are not always repeated.

Columns and labels:
[1] = molecular target: NfsB with C-terminal encapsulin localization sequence (cargo of Enc{NfsB}) (E. coli | M. smegmatis)
[2] = molecular target: T1, encapsulin from Mycobacterium smegmatis (UniProt ID: I7G8Y9), C-terminal Strep-tag (Mycobacterium smegmatis mc2 155); assay: SDS-PAGE gel densitometry of the co-purified complex; Enc{tdNfsB} at 500 ug/mL on a 15% gel, Coomassie; calibration curves of Enc and tdNfsB; molar ratio of tdNfsB (52.3 kDa) to Enc shell (1804.2 kDa); repeated twice
[3] = molecular target: T1, encapsulin from Mycobacterium smegmatis; assay: cryo-EM structure; same data set of purified Enc{tdNfsB}; the shell was subtracted from the particles, 2-D classification and low-resolution 3-D reconstruction of the interior; cargo and shell co-expressed in E. coli

| Substance | conversion of caged-hydroxy-CBT after 60 min by Enc{NfsB} (coupled luciferase assay), against 50% for free NfsB and tdNfsB and a comparable conversion for Enc{tdNfsB} [1] [%] | stoichiometry N (tdNfsB units per shell) [2] | stoichiometry N (tdNfsB per capsid) [3] |
| --- | --- | --- | --- |
| NfsB with C-terminal encapsulin localization sequence (cargo of Enc{NfsB}) (enzyme) | 10 |  |  |
| tandem NfsB with C-terminal encapsulin localization sequence (cargo of Enc{tdNfsB}) (enzyme) |  | 10 and 13 | 6 |
